Test [1] relates to HSV-2 G. Nature of the test: Topical treatment of acute genital HSV-2 infection in immunodeficient mice (survival, clinical score). The class given is in vivo, mice (NOD.CB17-Prkdc^scid/NCrHsd). The following applies: for mice with acute genital HSV-2 infection / local genital symptoms resolved at 48 h (number) / mice with acute genital HSV-2 infection / local genital symptoms resolved at 48 h (percent): 48 h after start of topical treatment, ACV 1 mg twice per day ongoing; for mice with acute genital HSV-2 infection / local genital symptoms resolved at 48 h (number) / mice with acute genital HSV-2 infection / local genital symptoms resolved at 48 h (percent) / mice in which HSV-2 lethal encephalitis was prevented: hu2c single 200 μg; for mice in which HSV-2 lethal encephalitis was prevented: topical, ACV 1 mg twice per day for 4 days. On the procedure:
FIG. 1: compares the survival of immunodeficient mice with acute genital HSV-2 infection after topical treatment either with the humanized monoclonal antibody hu2c or acyclovir. Female mice (NOD.CB17-Prkdc^scid/NCrHsd) were treated with a long-acting progestin (Depo-Clinovir, Pharmacia) 7 days prior to viral challenge to increase susceptibility to HSV-2 infection and to eliminate differences caused by the estrous cycle. Anesthetized mice were vaginally challenged with a lethal dose of 5×10^5 PFU of HSV-2 G (20 μl). Mice displaying visible infection (perineal hair loss, reddening, swelling) were treated one day after viral challenge (A) once with 40 μl hu2c (5 mg/ml) (●) or 40 μl control IgG (5 mg/ml) (□) or (B) twice daily for 4 days with 40 μl ACV (25 mg/ml) (Δ) or 40 μl PBS (x). Drug solutions or PBS were applied topically to the outer genital epithelium. Mice were monitored for 36 days after viral inoculation. Mice displaying sever systemic signs and/or severe lesions/zoster were killed. Surviving mice were sacrificed at day 36. Test groups contained eight animals each, control groups contained five animals each. Kaplan-Meier survival curves were analyzed by log-rank (Mantel-Cox) test. Two-tailed significance tests were used to compare the significance level between two groups. All protocols were approved by the Animal Care and Use Committee.
Mice displaying visible infection (perineal hair loss, reddening, swelling) one day after intravaginal challenge with a lethal dose of 5×10^5 PFU of HSV-2 G (20 μl) were treated (A & C) twice daily for 4 days with (A) 40 μl PBS or (C) 40 μl ACV (25 mg/ml), or treated (B & D) once at 24 h post infection with (B) 40 μl hu2c (5 mg/ml) or (D) 40 μl control IgG (5 mg/ml). Drug solutions or PBS were applied topically to the outer genital epithelium.
Infected animals were observed daily and their clinical status was scored as follows: 0, lack of symptoms, no lesions; 1-2, redeness and/or swelling (erosion); 3, localized lesion <1 mm; 4-5, localized lesion 2-3 mm; 6-7 localized lesion 4-5 mm; 8-9, severe hyperemia, destruction of the epithelium and stroma with necrosis; 10, systemic signs, death. Animals with grading >8 were killed to prevent undue suffering. Test groups contained eight animals each, control groups contained five animals each. Arrows indicate time points of treatment.
• The ability of the humanized monoclonal antibody hu2c to alter the clinical course of acute genital HSV-2 infection in immunodeficient mice following a single topical treatment with 200 μg mAb hu2c (5 mg/ml) was investigated. To infect 100% of mice as assessed by visible lesions and culture of vaginal lavage, a viral inoculum of 5×10^5 PFU of HSV-2 G was delivered to the vagina of anesthetized mice. • Although acute HSV-1 or HSV-2 infections result in a fatal outcome in 100% of mice with severe combined immunodeficiency when compared to 70-90% mortality in immunocompetent mice, the immunodeficient model has nevertheless been chosen to discriminate a possible clinical efficacy of the therapy from an elimination of the viral infection due to immune effector cells of the mouse (Minagawa et al., Arch Virol 103, 73-82 (1988); Nagafuchi et al., J Gen Virol 44, 715-723 (1979)). Within genital mucosa the expansion rates of HSV-2 are extremely rapid. At 24 h after viral challenge infected mice received topically at the infected area either twice per day for 4 days 1 mg acyclovir (ACV) (25 mg/ml) or 40 μl buffer (PBS) or a single treatment of 200 μg mAb hu2c (5 mg/ml) or 200 μg control mAb (5 mg/ml). Clinical efficacy of the HSV-specific mAb was compared to the irrelevant mAb (isotypcontrol), ACV and PBS treatment by means of Kaplan-Meier survival curves and daily assessment of the clinical status of the mucous membranes of the genital and anal area. […]

Test [2] has as its system recurrent herpes labialis. The following applies: 5 times per day for 4 days, cited from earlier work.
The subject of test [3] is oral herpes infection (HSV-1 or HSV-2, type not analyzed). Nature of the test: Topical application of humanized anti-HSV antibody in volunteers with acute recurrence of oral herpes (cold sores). Format: in vivo, human. The method, then:
1.2 Trial Description • Between 2010-2013, twelve healthy 30-59 year old volunteers (7 female, 5 male) with an acute recurrence of oral herpes infection (cold sores) were treated. Volunteers presented themselves when the onset of initial HSV symptoms (itching of the lips, burning or tingling near the lips or mouth area) occurred or had progressed to visible skin disorders on the outer lips. […] However, sometimes HSV-2 is spread to the mouth during oral sex, causing oral herpes. The type of HSV infection (HSV-1 or HSV-2) was not analyzed. • The antibody was packaged as sterile solutions either in PBS or PBS/ash créme (1:1) at concentrations of 0.7-1 mg/ml. Participants applied approx. 10 μl of the antibody topically once, once per day for two days or for a total of three times maximum.
2. Results • ZOVIRAX Cream had been evaluated in 2 double-blind, randomized, placebo (vehicle)-controlled trials (see Zovirax N-. Zovirax Prescribing Information. http://wwwaccessdatafdagov/drugsatfda_docs/label/2002/21478_zovirax_Ib|pdf#page=1&zoom=auto,0,792). • In the Zovirax studies, subjects were instructed to initiate treatment within 1 hour of noticing signs or symptoms and continue treatment for 4 days, with application of study medication 5 times per day. […] At time of treatment several small blisters were visible. For the antibody treated HSV infection a quick recovery was observed.

Setting [4] is: 72 h after commencement of ACV treatment.
Where [5] appears, read: one volunteer, upper lip, antibody three times.

Some results are limits rather than exact numbers.

Turning to `Nc1nc(=O)c2ncn(COCCO)c2[nH]1` [ACV, 2-Amino-9-(2-hydroxyethoxymethyl)-3H-purin-6-on], in test [1], the “mice with acute genital HSV-2 infection / local genital symptoms resolved at 48 h (number)” value is reported as 1 out of 8, the “mice with acute genital HSV-2 infection / local genital symptoms resolved at 48 h (percent)” value came out at 13% and the “mice in which HSV-2 lethal encephalitis was prevented” value is given as 1 out of 8. Further, in test [1] (setting [4]), the “mice with no local signs at 72 h (number)” value is listed as 5 out of 8 and the “mice with no local signs at 72 h (percent)” value was 63%. Further, the “reduction of episode duration compared with placebo” value in test [2] is listed as 0.5 days. In test [2] (placebo 5 days), the “mean duration of the recurrent herpes labialis episode” value is recorded as 4.5 days.

B1: mAb hu2c: humanized derivative of murine mAb 2c recognizing glycoprotein B of HSV-1/2; CDRs grafted into DP28/DPK13, human γ1 and κ constant chains (antibody, V domains shown)
VH: QVTLKESGPALVKPTQTLTLTCTFSGFSLSTSGMSVGWIRQPPGKALEWLAHIWWNNDKYYKPALKSRLTISKDTSKNQVVLTMTNMDPVDTATYYCARIYYGYRPYAMDYWGQGTLVTVSS
VL: DIVMTQTPLSLPVTPGEPASISCRSSQSIVHSNGNTYLEWYLQKPGQSPQLLIYKVSNRFSGVPDRFSGSGSGTDFTLKISRVEAEDVGVYYCFQGSHVPWSFGQGTKVEIKR
modifications: VH of the humanized mAb hu2c antibody; VL of the humanized mAb hu2c antibody
notes: humanized derivative of murine mAb 2c recognizing glycoprotein B of HSV-1/2; CDRs grafted into DP28/DPK13, human γ1 and κ constant chains
For B1, in test [3] (all participants), the “spread of the infected area upon treatment” value is given as “did not spread”. The “fast symptom and pain relief after application” value in test [3] (all participants, approx. 10 μl of 0.7-1 mg/ml, one to three applications) is at most 24 h. Also, the “overall rates of clinical reactivation (participants' impression)” value in test [3] (human, in vivo) is on record as “tend to be reduced”. Besides, the occurrence of lesions entry in test [3] (one volunteer, upper lip) is “no lesions occurred”. In addition, in test [3] (setting [5]), the “time to disappearance of blisters” value is given as at most 24 h and the “time until swelling subsided” value is on record as at most 48 h. The “healing when treatment started at stage of visible external herpetic lesions” value in test [3] (participants' report) was “rapid healing and disappearance of crusted areas”. Moreover, in test [3] (participants' report or one volunteer with upper lip (antibody) and lower lip (Zovirax)), the “course of active blisters” value is “regressed and did not turn into weeping blisters”. Further, in test [3] (topical administration, acute infection of the tissue of the lips), the “time to elimination of the infection” value was at most 24 h. In addition, in test [1], the “mice with acute genital HSV-2 infection / local genital symptoms resolved at 48 h (number)” value was 7 out of 8, the “mice with acute genital HSV-2 infection / local genital symptoms resolved at 48 h (percent)” value is reported as 88% and the “mice in which HSV-2 lethal encephalitis was prevented” value is reported as 1 out of 8.

Source of the values: US11267871B2, “Topical application for an anti-HSV antibody” (priority 2014, dated 2022).
